The values that follow come from patent EP4806914A1 (Daicel Corporation, dated 2026).

The target of this experiment is T1, AAV9 empty capsid (adeno-associated virus serotype 9 (AAV9), Assembled icosahedral particle of about 60 copies of VP1, VP2 and VP3 (nested forms of one cap gene product) with no nuc [CUT]).
T1 construct: Assembled viral particle without nucleic acid, adsorbed to a Maxisorp plate; It has the same capsid protein as the full capsid and differs only in the packaged nucleic acid; also called AAV9 empty capsid sample; AAV empty capsids
Kind of experiment: ELISA, 0.1 ug AAV9 coated on Maxisorp plate, scFv detected with HRP-labeled anti-His-Tag antibody, A450-A650; reference: blank (BSA). On the technique in general: In an ELISA, binding on a coated surface is turned into a signal by an enzyme label.

B1: second anti-AAV-scFv [2] (scFv)
scFv: QSLEESGGDLVKPGASLTLTCTASGFSFSSNYWMFWVRQAPGKGLEWIAHIYGGSSGSTYYASWAKGRFTISKTSSTTVTLQMTSLTAADTATYFCATVDNGYSDLKLWGPGTLVTVTSGGGGSGGGGSGGGGSELVLTQTADSVEAGVGGTVTIKCQASQSIRNWLSWYQQKPGQPPKLLISRASTLASGVPSRFSGSGSGTEFTLTISDLECDDGATYYCQSSFYADSGEPAFGGGTEVDIKRSAAAGGGSEQKLISEEDLGGGSHHHHHH
notes: Rabbit-derived scFv from a phage library, purified from E. coli culture supernatant with His MultiTrap FF; also called second anti-AAV full capsid molecule
Consider B1, for which the “IE/IB (ratio of ELISA absorbance for the empty capsid sample to that for the blank (BSA))” value turned out to be 3.7 ratio.
